Consider one substance from patent publication US20240361320A1.

The assay concerns the target SARS-CoV-2 3CL^pro enzyme (Recombinant derived from Escherichia coli, ab277614, ABCAM; SEQ ID NO:2) (SARS-CoV-2) (UniProt P0DTC1). Nature of the assay: cell-based or functional assay.

For the substance “myoglobin antibody (Monoclonal rabbit-derived, ab77232, ABCAM; binding to SEQ ID NO:5)”, the oxidation peak shift (ΔEPeak) of pBQ came out at 0 mV.
